Assay results published in patent publication US20220323445A1, “REDUCING IMMUNOGENICITY TO PEGLOTICASE” (Horizon Therapeutics Ireland DAC, priority 2020, published 2022).

Test system: serum uric acid (sUA)
Test: Serum uric acid (sUA) levels and sUA responders, open-label study of pegloticase with MTX (NCT03635957)
Format: in vivo, human
Protocol: The primary objective is to estimate the response rate during Month 6 (Weeks 20, 22, and 24), as measured by the sustained normalization of serum uric acid (SUA) to <6 mg/dL for at least 80% of the time during Month 6 in subjects receiving KXX with MTX.
The primary efficacy outcome endpoint is the sustained normalization of SUA to <6 mg/dL for at least 80% of the time during month 6 (weeks 20, 22, and 24) in subjects receiving KXX with MTX. This is slightly below the urate solubility threshold and this threshold has been the accepted standard for nearly all modern gout trials. Participants who achieve this endpoint were classified as “responders.” Serum uric acid (SUA) responders may also be defined as participants achieving and maintaining SUA <6 mg/dL for at least 80% of the time during Month 6 (Weeks 20, 22, and 24).
Blood samples may be collected prior to each pegloticase infusion for measurement of SUA levels using the Beckman Coulter AU System Uric Acid procedure. Participants were declared “non-responders” if there were SUA measures >6 mg/dL at 2 consecutive study visits beginning with the week 2 visit. […] If the SUA goal is not maintained before or at the 12-week mark, it was assumed that the participant had developed clinically relevant anti-pegloticase antibody and they received no further infusions. This assumption and subsequent discontinuation of pegloticase was consistent with the protocol of large phase III randomized controlled trials and the product label. A formal stopping rule was 2 occasions of SUA levels of greater than 6 mg/dL.
Clinical Chemistry—Blood samples were collected prior to each pegloticase infusion for measurement of SUA levels (primary efficacy parameter) using the Beckman Coulter AU System Uric Acid procedure. In this procedure uric acid is converted to hydrogen peroxide. Hydrogen peroxide reacts with reagent to produce a chromophore which is read bichromatically at 660/800 nm. The amount of dye formed is proportional to the uric acid concentration in the sample.
Serum samples for measurement of SUA levels were collected at the Screening Visit, the Week −4 Visit (prior to the first dose of MTX), and the Week −2 Visit during the MTX Run-in Period; within 48 hours prior to each pegloticase infusion and after the end of each pegloticase infusion prior to discharge from the site during the Pegloticase+IMM Period; at the non-infusion Week 52/End of Study/Early Termination Visits and at the Post Treatment 3 and 6 Month Follow-up Visits. Additional serum samples for SUA levels were collected at optional non-infusion (Frequent Sampling) Visits at Weeks 1 and 7. […] Subjects with SUA level >6 mg/dL at 2 consecutive visits beginning at Week 2 visit discontinued treatment, completed the End of Pegloticase Infusion Visit procedures within 2 weeks and continued the subject visits according to the protocol (without treatment).
Efficacy analyses were performed using the modified intention-to-treat (mITT) population, defined as all enrolled subjects who received ≥1 dose of pegloticase. The proportion of Month 6 responders was summarized, along with a 95% confidence interval for the proportion. The proportion of Month 3 and overall (Months 3 and 6 combined) responders was analyzed similarly.
A subject was declared a non-responder if the subject had SUA level >6 mg/dL at 2 consecutive study visits beginning with the Week 2 Visit. In addition, a subject who withdraws from study treatment for any reason after the first dose of pegloticase in the KXX+MTX Period and prior to Month 6 (for the primary endpoint) or Month 3 (for the secondary endpoint) was considered a non-responder if SUA values were not collected at the planned time points.
Patients were administered oral MTX (15 mg/week) and folate (1 mg/day) 4 weeks prior to the first pegloticase infusion (Day 1) and throughout the pegloticase treatment period. […]

[1] = Week 6 - Pre-Infusion, Month 6 sUA Responders
[2] = Week 6 - Pre-Infusion, mITT, n=13
[3] = Week 8 - Post-Infusion, Month 6 sUA Non-Responders
[4] = Week 8 - Post-Infusion, Month 6 sUA Responders
[5] = Week 8 - Post-Infusion, mITT, n=12
[6] = Week 8 - Pre-Infusion, Month 6 sUA Non-Responders
[7] = Week 8 - Pre-Infusion, Month 6 sUA Responders
[8] = Week 8 - Pre-Infusion, mITT, n=12
[9] = Week 10 - Post-Infusion, Month 6 sUA Responders
[10] = Week 10 - Post-Infusion, mITT, n=11
[11] = Week 10 - Pre-Infusion, Month 6 sUA Non-Responders
[12] = Week 10 - Pre-Infusion, Month 6 sUA Responders
[13] = Week 10 - Pre-Infusion, mITT, n=12
[14] = Week 12 - Post-Infusion, Month 6 sUA Responders
[15] = Week 12 - Post-Infusion, mITT, n=10
[16] = Week 12 - Pre-Infusion, Month 6 sUA Responders
[17] = Week 12 - Pre-Infusion, mITT, n=11
[18] = Week 14 - Post-Infusion, Month 6 sUA Responders
[19] = Week 14 - Post-Infusion, mITT, n=10
[20] = Week 14 - Pre-Infusion, Month 6 sUA Responders
[21] = Week 14 - Pre-Infusion, mITT, n=11
[22] = Week 16 - Post-Infusion, Month 6 sUA Responders
[23] = Week 16 - Post-Infusion, mITT, n=11
[24] = Week 16 - Pre-Infusion, Month 6 sUA Responders
[25] = Week 16 - Pre-Infusion, mITT, n=11
[26] = Week 18 - Post-Infusion, Month 6 sUA Responders
[27] = Week 18 - Post-Infusion, mITT, n=11

B1: pegloticase (protein)
chain: TYKKNDEVEFVRTGYGKDMIKVLHIQRDGKYHSIKEVATTVQLTLSSKKDYLHGDNSDVIPTDTIKNTVNVLAKFKGIKSIETFAVTICEHFLSSFKHVIRAQVYVEEVPWKRFEKNGVKHVHAFIYTPTGTHFCEVEQIRNGPPVIHSGIKDLKVLKTTQSGFEGFIKDQFTTLPEVKDRCFATQVYCKWRYHQGRDVDFEATWDTVRSIVLQKFAGPYDKGEYSPSVQKTLYDIQVLTLGQVPEIEDMEISLPNIHYLNIDMSKMGLINKEEVLLPLDNPYGKITGTVKRKLSSRL
modifications: monomethoxy PEG conjugated; Krystexxa Sequence
notes: covalent conjugate of uricase produced by a genetically modified strain of Escherichia coli and monomethoxypoly (ethylene glycol)
-9.05 mg/dL: sUA Change from Baseline, Median [14] | sUA Change from Baseline, Median [15] | sUA Change from Baseline, Median [18] | sUA Change from Baseline, Median [19]
11 (91.7%): sUA < 6 mg/dL, n (%) [8] | sUA < 6 mg/dL, n (%) [13]
−8.97 (2.810) mg/dL: sUA Change from Baseline, Mean (SD) [10] | sUA Change from Baseline, Mean (SD) [21] | sUA Change from Baseline, Mean (SD) [23] | sUA Change from Baseline, Mean (SD) [25] | sUA Change from Baseline, Mean (SD) [27]
-9.01 mg/dL: sUA Change from Baseline, Mean [18]
−8.98 (2.679) mg/dL: sUA Change from Baseline, Mean (SD) [5]
0.91 (2.191) mg/dL: sUA Observed, Mean (SD) [2]
1.08 (2.472) mg/dL: sUA Observed, Mean (SD) [8]
-8.98 mg/dL: sUA Change from Baseline, Mean [16]
0.30 (0.015) mg/dL: sUA Observed, Mean (SD) [17]
8.90 mg/dL: sUA Observed, Mean [6]
-8.80 mg/dL: sUA Change from Baseline, Median [1] | sUA Change from Baseline, Median [2] | sUA Change from Baseline, Median [9] | sUA Change from Baseline, Median [10] | sUA Change from Baseline, Median [16] | sUA Change from Baseline, Median [17] | sUA Change from Baseline, Median [20] | sUA Change from Baseline, Median [21] | sUA Change from Baseline, Median [22] | sUA Change from Baseline, Median [23] | sUA Change from Baseline, Median [24] | sUA Change from Baseline, Median [25] | sUA Change from Baseline, Median [26] | sUA Change from Baseline, Median [27]
-9.13 mg/dL: sUA Change from Baseline, Mean [14]
4 (100%): sUA < 6 mg/dL, n (%) (Week 7, mITT, n=4)
-9.10 mg/dL: sUA Change from Baseline, Mean [3]
0.37 mg/dL: sUA Observed, Mean [7]
−8.90 (4.755) mg/dL: sUA Change from Baseline, Mean (SD) (Week 7, mITT, n=4)
−8.20 (3.624) mg/dL: sUA Change from Baseline, Mean (SD) [8]
−9.13 (2.911) mg/dL: sUA Change from Baseline, Mean (SD) [15]
−8.33 (3.476) mg/dL: sUA Change from Baseline, Mean (SD) [13]
-7.85 mg/dL: sUA Change from Baseline, Median (Week 7, mITT, n=4)
(100%): sUA < 6 mg/dL, % [1] | sUA < 6 mg/dL, % (Week 7, Month 6 sUA Responders) | sUA < 6 mg/dL, % [3] | sUA < 6 mg/dL, % [4] | sUA < 6 mg/dL, % [7] | sUA < 6 mg/dL, % [9] | sUA < 6 mg/dL, % [12] | sUA < 6 mg/dL, % [14] | sUA < 6 mg/dL, % [16] | sUA < 6 mg/dL, % [18] | sUA < 6 mg/dL, % [20] | sUA < 6 mg/dL, % [22] | sUA < 6 mg/dL, % [24] | sUA < 6 mg/dL, % [26] | sUA < 6 mg/dL, % (Week 18 - Pre-Infusion, Month 6 sUA Responders)
12 (92.3%): sUA < 6 mg/dL, n (%) [2]
-8.95 mg/dL: sUA Change from Baseline, Median [5]
−9.01 (2.959) mg/dL: sUA Change from Baseline, Mean (SD) [19]
-1.30 mg/dL: sUA Change from Baseline, Mean [11]
-8.70 mg/dL: sUA Change from Baseline, Median [13]
11 (100%): sUA < 6 mg/dL, n (%) [10] | sUA < 6 mg/dL, n (%) [17] | sUA < 6 mg/dL, n (%) [21] | sUA < 6 mg/dL, n (%) [23] | sUA < 6 mg/dL, n (%) [25] | sUA < 6 mg/dL, n (%) [27]
-8.97 mg/dL: sUA Change from Baseline, Mean [1] | sUA Change from Baseline, Mean [4] | sUA Change from Baseline, Mean [9] | sUA Change from Baseline, Mean [12] | sUA Change from Baseline, Mean [20] | sUA Change from Baseline, Mean [22] | sUA Change from Baseline, Mean [24] | sUA Change from Baseline, Mean [26]
-0.50 mg/dL: sUA Change from Baseline, Mean [6]
−8.31 (3.538) mg/dL: sUA Change from Baseline, Mean (SD) [2]
-8.33 mg/dL: sUA Change from Baseline, Median [8]
0.30 mg/dL: sUA Observed, Mean [1] | sUA Observed, Median [1] | sUA Observed, Median [2] | sUA Observed, Mean (Week 7, Month 6 sUA Responders) | sUA Observed, Median (Week 7, mITT, n=4) | sUA Observed, Mean [3] | sUA Observed, Mean [4] | sUA Observed, Median [5] | sUA Observed, Median [8] | sUA Observed, Mean [9] | sUA Observed, Median [9] | sUA Observed, Median [10] | sUA Observed, Mean [12] | sUA Observed, Median [13] | sUA Observed, Mean [14] | sUA Observed, Median [14] | sUA Observed, Median [15] | sUA Observed, Mean [16] | sUA Observed, Median [16] | sUA Observed, Median [17] | sUA Observed, Mean [18] | sUA Observed, Median [18] | sUA Observed, Median [19] | sUA Observed, Mean [20] | sUA Observed, Median [20] | sUA Observed, Median [21] | sUA Observed, Mean [22] | sUA Observed, Median [22] | sUA Observed, Median [23] | sUA Observed, Mean [24] | sUA Observed, Median [24] | sUA Observed, Median [25] | sUA Observed, Mean [26] | sUA Observed, Median [26] | sUA Observed, Median [27]
10 (100%): sUA < 6 mg/dL, n (%) [15] | sUA < 6 mg/dL, n (%) [19]
-8.91 mg/dL: sUA Change from Baseline, Mean [7]
8.10 mg/dL: sUA Observed, Mean [11]
0.95 (2.252) mg/dL: sUA Observed, Mean (SD) [13]
−8.98 (2.806) mg/dL: sUA Change from Baseline, Mean (SD) [17]
0.30 (0.000) mg/dL: sUA Observed, Mean (SD) (Week 7, mITT, n=4) | sUA Observed, Mean (SD) [5] | sUA Observed, Mean (SD) [10] | sUA Observed, Mean (SD) [15] | sUA Observed, Mean (SD) [19] | sUA Observed, Mean (SD) [21] | sUA Observed, Mean (SD) [23] | sUA Observed, Mean (SD) [25] | sUA Observed, Mean (SD) [27]
12 (100%): sUA < 6 mg/dL, n (%) [5]
-8.90 mg/dL: sUA Change from Baseline, Mean (Week 7, Month 6 sUA Responders)
